Test results taken from US20240252614A1 (Pfizer, published 2024).

What was measured:
hMPV B F WT Control = hMPV B F WT Control (hMPV B, UniProt Q6WB98 19-102); assay: BLI, no stress
Description: (§1) All measurements were conducted at 30° C. temperature in 96-well black plates (Corning, Corning, NY) with a final volume of 240 μL per well at a constant agitation rate of 1000 RPM.
(§2) Conformation integrity of hMPV B F protein mutants were evaluated by a thermal stress experiment. Crude cell culture supernatants were normalized based on the results of the titer quantitation and then incubated for 1 hour at room temperature and two higher temperatures. For the testing of hMPV B single mutants, the two temperatures were 53° C. and 56° C. After the incubation, the protein mutants were probed with prefusion specific monoclonal antibody hMPV-2 by OCTET HTX. Anti-Human IgG Fc Capture (AHC) biosensors were first equilibrated in PB before being dipped into more PB for to establish the initial baseline. Biosensors were incubated with hMPV-2 before being equilibrated in PB to establish the experimental baseline. The mAb-bound biosensors were then dipped into the thermal stresses cell culture supernatants for 5 minutes.

hMPV100 = target: T1, hMPV100 (hMPV B, UniProt Q6WB98 19-102); assay: BLI, no stress
T1 construct: T411C-Q434C
Description: as §1, §2

hMPV101 = target: T2, hMPV101 (hMPV B, UniProt Q6WB98 19-102); assay: BLI, no stress
T2 construct: A140C-S149C
Description: as §1, §2

hMPV102 = target: T3, hMPV102 (hMPV B, UniProt Q6WB98 19-102); assay: BLI, no stress
T3 construct: L141C-A161C
Description: as §1, §2

hMPV103 = target: T4, hMPV103 (hMPV B, UniProt Q6WB98 19-102); assay: BLI, no stress
T4 construct: E146C-T160C
Description: as §1, §2

hMPV104 = target: T5, hMPV104 (hMPV B, UniProt Q6WB98 19-102); assay: BLI, no stress
T5 construct: A459P
Description: as §1, §2

hMPV105 = target: T6, hMPV105 (hMPV B, UniProt Q6WB98 19-102); assay: BLI, no stress
T6 construct: G239A
Description: as §1, §2

hMPV106 = target: T7, hMPV106 (hMPV B, UniProt Q6WB98 19-102); assay: BLI, no stress
T7 construct: T49I
Description: as §1, §2

hMPV107 = target: T8, hMPV107 (hMPV B, UniProt Q6WB98 19-102); assay: BLI, no stress
T8 construct: S149T
Description: as §1, §2

hMPV108 = target: T9, hMPV108 (hMPV B, UniProt Q6WB98 19-102); assay: BLI, no stress
T9 construct: T365I
Description: as §1, §2

hMPV047 = target: T10, hMPV047 (hMPV A, UniProt Q6WB98 19-102); assay: BLI, 50C stress
T10 construct: L141C-A159C
Description: (§3) The OCTET HTX (Sartorius, Gottingen, Germany) instrument was used to evaluate the expression and conformational integrity for each mutant. All measurements were conducted at 30° C. temperature in 96-well black plates (Corning, Corning, NY) with a final volume of 240 μL per well at a constant agitation rate of 1000 RPM.
(§4) Conformation integrity of hMPV A F protein mutants were evaluated by thermal stress experiments. Crude cell culture supernatants were normalized based on the results of the titer quantitation and then incubated for 1 hour at room temperature and two higher temperatures. […] Anti-Human IgG Fc Capture (AHC) biosensors were first equilibrated in PB before being dipped into more PB to establish the initial baseline. […] The mAb-bound biosensors were then dipped into the thermal stressed cell culture supernatants for 5 minutes. The kinetics analysis was done by OCTET data analysis software (version 12.0, Sartorius) based on curve fitting of the entire associate step.

hMPV049 = target: T11, hMPV049 (hMPV A, UniProt Q6WB98 19-102); assay: BLI, 50C stress
T11 construct: E146C-T160C
Description: as §3, §4

hMPV050 = target: T12, hMPV050 (hMPV A, UniProt Q6WB98 19-102); assay: BLI, 50C stress
T12 construct: V148C-L158C
Description: as §3, §4

hMPV053 = target: T13, hMPV053 (hMPV A, UniProt Q6WB98 19-102); assay: BLI, 50C stress
T13 construct: L110P
Description: as §3, §4

hMPV054 = target: T14, hMPV054 (hMPV A, UniProt Q6WB98 19-102); assay: BLI, 50C stress
T14 construct: S132P
Description: as §3, §4

hMPV055 = target: T15, hMPV055 (hMPV A, UniProt Q6WB98 19-102); assay: BLI, 50C stress
T15 construct: N145P
Description: as §3, §4

hMPV059 = target: T16, hMPV059 (hMPV A, UniProt Q6WB98 19-102); assay: BLI, 50C stress
T16 construct: V449P
Description: as §3, §4

hMPV060 = target: T17, hMPV060 (hMPV A, UniProt Q6WB98 19-102); assay: BLI, 50C stress
T17 construct: A459P
Description: as §3, §4

hMPV063 = target: T18, hMPV063 (hMPV A, UniProt Q6WB98 19-102); assay: BLI, 50C stress
T18 construct: G239A
Description: as §3, §4

hMPV066 = target: T19, hMPV066 (hMPV A, UniProt Q6WB98 19-102); assay: BLI, 50C stress
T19 construct: T49I
Description: as §3, §4

hMPV067 = target: T20, hMPV067 (hMPV A, UniProt Q6WB98 19-102); assay: BLI, 50C stress
T20 construct: S149T
Description: as §3, §4

hMPV068 = target: T21, hMPV068 (hMPV A, UniProt Q6WB98 19-102); assay: BLI, 50C stress
T21 construct: A159V
Description: as §3, §4

hMPV071 = target: T22, hMPV071 (hMPV A, UniProt Q6WB98 19-102); assay: BLI, 50C stress
T22 construct: T365I
Description: as §3, §4

hMPV A F WT Control = hMPV A F WT Control (hMPV A, UniProt Q6WB98 19-102); assay: BLI, 50C stress
Description: as §3, §4

hMPV043 = target: T23, hMPV043 (hMPV A, UniProt Q6WB98 19-102); assay: BLI, 50C stress
T23 construct: G366C-D454C
Description: as §3, §4

hMPV044 = target: T24, hMPV044 (hMPV A, UniProt Q6WB98 19-102); assay: BLI, 50C stress
T24 construct: T411C-Q434C
Description: as §3, §4

hMPV045 = target: T25, hMPV045 (hMPV A, UniProt Q6WB98 19-102); assay: BLI, 50C stress
T25 construct: I137C-A159C
Description: as §3, §4

hMPV046 = target: T26, hMPV046 (hMPV A, UniProt Q6WB98 19-102); assay: BLI, 50C stress
T26 construct: A140C-S149C
Description: as §3, §4

[1] = target: T27, stabilized hMPV F protein trimer in pre-fusion conformation (human metapneumovirus); assay: ELISA, F protein coated
T27 construct: also called preF-hMPV; hMPV pre-fusion F protein
Description: (§5) Briefly, 96-well microtiter plates were coated with 100 μL/well of individual F protein at 2 μg/mL, and then incubated at 4° C. overnight. After washing with 0.01M TBS/0.1% Brij-35, the plates were blocked with 5% non-fat milk for 1 hr at RT. […] After 3 washes with 0.01M TBS/0.1% Brij-35, 100 μL/well of secondary antibody (HRP-anti-human Fc) in a 1:3000 dilution was added to the plates and incubated for 1 hr RT. After 3 washes with 0.01M TBS/0.1% Brij-35, 100 μL/well of TMB-ELISA Substrate Solution was added to the plates. The reaction was stopped with addition of 100 μL/well of 2N H2SO4 after 2 minutes. The plates were then read on a SpectraMax microplate reader with SoftMax Pro software at OD 450 nm (Molecular Devices). The data was analyzed with Graphpad Prism software.

[2] = target: T28, PIV1 F literature prefusion comparison (PIV1); assay: BLI, no stress
T28 construct: F113G, F114S, A466I, S473I (Stewart-Jones et al. 2018)
Description: (§6) Conformation integrity of PIV1 F protein mutants were evaluated by a thermal stress experiment. Crude cell culture supernatants were normalized based on the results of the titer quantitation and then incubated for 1 hour at room temperature and two higher temperatures. For the initial testing of PIV1 mutants, the two temperatures were 50° C. and 53° C. […] Anti-Human IgG Fc Capture (AHC) biosensors were first equilibrated in PB for before being dipped into more PB to establish the initial baseline. […] The mAb-bound biosensors were then dipped into the thermal stresses cell culture supernatants for 5 minutes.

PIV1069 = target: T29, PIV1069 (PIV1); assay: BLI, no stress
T29 construct: F113G, F114S, A466L, S473L, G134A
Description: as §6

PIV1070 = target: T30, PIV1070 (PIV1); assay: BLI, no stress
T30 construct: F113G, F114S, A466I, S473I, G134A
Description: as §6

PIV1051 = target: T31, PIV1051 (PIV1); assay: BLI, 53C stress;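 further: binding of thermally stressed PIV1 F mutant supernatant to mAb on AHC biosensors for 5 min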
T31 construct: Q92C-G134C, A466V, S473V, A480V
Description: as §3, §6

PIV1056 = target: T32, PIV1056 (PIV1); assay: BLI, 53C stress;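 further: binding of thermally stressed PIV1 F mutant supernatant to mAb on AHC biosensors for 5 min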
T32 construct: F113G, F114S, A466L, S473L, A480L, Q92A, G134A
Description: as §3, §6

PIV1063 = target: T33, PIV1063 (PIV1); assay: BLI, 53C stress;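 further: binding of thermally stressed PIV1 F mutant supernatant to mAb on AHC biosensors for 5 min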
T33 construct: A466L, S473L, A480L, Q92A, G134L
Description: as §3, §6

[3] = target: T34, stabilized hPIV1 F protein trimer in pre-fusion conformation (human parainfluenza virus 1); assay: ELISA, F protein coated
T34 construct: also called preF-hPIV1; HPIV1 pre-fusion F protein
Description: as §5

B1: hMPV-2 mAb (antibody, V domains shown)
VH: QVQLQQSGAEVKKPGASVKVSCKASGYTFTSYGISWVRQAPGQGLEWMGWISGYNGNTNYAQTFQGTFTMTTDTSTSTAYMELRRLRSGDTAVYYCARDRYYASGSYNGMDVWGQGTTVTVSS
VL: QSALTQPPSASGAPGQRVTVSCSGSSSNVGSSSVYWYQQLPGTAPKLLIYRNNQRPSGVPDRFSGSKSGTSASLAISGLRSEDEADYYCAAWDDSLSGWVFGGGTKLTVLG
notes: human IgG1
In the case of B1, the “Response Shift” value (hMPV B F WT Control) is reported as 0.867 nm, the “Response Shift” value (hMPV100) is reported as 0.863 nm and the “Response Shift” value (hMPV101) is reported as 0.707 nm. For the same binder, the “Response Shift” value (hMPV102) was 0.84 nm, the “Response Shift” value (hMPV103) was 0.814 nm and the “Response Shift” value (hMPV104) was 0.85 nm. For the same binder, the “Response Shift” value (hMPV105) was 0.906 nm, the “Response Shift” value (hMPV106) was 0.912 nm and the “Response Shift” value (hMPV107) was 0.89 nm. For the same binder, the “Response Shift” value (hMPV108) was 0.89 nm, the “Response Shift” value (hMPV047) was -0.039 nm and the “Response Shift” value (hMPV049) was 0.549 nm. For the same binder, the “Response Shift” value (hMPV050) was 0.142 nm, the “Response Shift” value (hMPV053) was 0.566 nm and the “Response Shift” value (hMPV054) was 0.467 nm. The “Response Shift” value (hMPV055) was 0.194 nm, the “Response Shift” value (hMPV059) was 0.455 nm and the “Response Shift” value (hMPV060) was 0.707 nm. The “Response Shift” value (hMPV063) was 0.685 nm, the “Response Shift” value (hMPV066) was 0.738 nm and the “Response Shift” value (hMPV067) was 0.654 nm. The “Response Shift” value (hMPV068) was 0.441 nm, the “Response Shift” value (hMPV071) was 0.694 nm and the “Response Shift” value (hMPV A F WT Control) was 0.284 nm. For the same binder, the “Response Shift” value (hMPV043) was 0.567 nm, the “Response Shift” value (hMPV044) was 0.737 nm and the “Response Shift” value (hMPV045) was 0.124 nm. The “Response Shift” value (hMPV046) was 0.472 nm and the EC50 [1] was 0.097 nM.

B2: PIV1-8 mAb (antibody, V domains shown)
VH: QVQLVQSGAEVKKPGSSVKVSCEASGGTFSNYVISWVRQAPGQGLEWMGGIIPVFATAKYAQKFQGRVTIIADQSTNTAYLELSSLRSDDTAVYFCASVDSGGTWWDAFAIWGQGTMVTVSS
VL: QAVVTQPRSVSGSPGQAVTISCTGTSSDVGGYNYVSWYQHHPGKAPKLIIYDVTKRPSGVPDRFSGSKSGNTASLTISGLQTEYEADYYCCSYAGSYTLVFGGGTKLTVLG
notes: human IgG1; also called hPIV1-8 mAb; hPIV1-8
B2 was tested, and the “Response Shift” value [2] was 0.769 nm, the “Response Shift” value (PIV1069) was 0.857 nm and the “Response Shift” value (PIV1070) was 0.876 nm. The “Response Shift” value (PIV1051) was 0.744 nm, the “Response Shift” value (PIV1056) was 0.805 nm and the “Response Shift” value (PIV1063) was -0.036 nm. It also gave an EC50 [3] of 0.103 nM.
